Laboratory results as given in article PMC9714796 (2022).

Target: T1, TGF-βRII-Fc (muTGFbRII-mFc) (mouse (from the printed name …, UniProt Q62312 24-166))
T1 chain: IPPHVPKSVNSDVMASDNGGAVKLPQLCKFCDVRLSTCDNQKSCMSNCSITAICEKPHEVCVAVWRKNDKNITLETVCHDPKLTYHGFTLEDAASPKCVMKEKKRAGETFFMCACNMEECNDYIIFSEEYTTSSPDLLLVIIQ
Test: SPR

koff: 0.0013 s⁻¹
B1: Transforming growth factor-β3 (TGF-β3) (ligand)
chain: ALDTNYCFRNLEENCCVRPLYIDFRQDLGWKWVHEPKGYYANFCSGPCPYLRSADTTHSTVLGLYNTLNPEASASPCCVPQDLEPLTILYYVGRTPKVEQLSNMVVKSCKCS
